Earlier results, collected in PMC7883480.

What was measured:
[1] = target: GIP receptor (Homo sapiens) (UniProt P48546); test: competitive binding assay
CXCR4 (Homo sapiens) = CXCR4 (Homo sapiens) (UniProt P61073); test: radioligand competitive displacement
[2] = target: GLP-1 receptor (Homo sapiens) (UniProt P43220); test: SPA binding assay

Row | Substance | Ki [1] [nM] | Kd (CXCR4 (Homo sapiens)) [nM] | Ki [2] [nM]
1 | GIP 1-30 (from UniProt P09681) | 0.89 | – | –
2 | CXCL12 1-68 (from UniProt P48061) | – | 1.44 | –
3 | GIP 3-30 (from UniProt P09681) | 2.3 | – | –
4 | CXCL12 3-68 (from UniProt P48061) | – | 464 | –
5 | GLP-1 9-36 (from UniProt P01275) | – | – | 156
6 | GLP-1 7-36 (from UniProt P01275) | – | – | 0.102
